# Measurements from the RNAGym collection of RNA variant scans (doi:10.7554/elife.80360).
# B1: Twister Ribozyme (parent)
# chain: AACACUGCCAAUGCCGGUCCCAAGCCCGGAUAAAAGUGGAGGGGGCGG
# Variants of: B1
# Test: self-cleavage, relative activity (ratio to wild type); higher = more cleavage; co-transcriptional
row,Variant,self-cleavage
1,U6G G36C,0.0766
2,U6G G36U,0.0341
3,U6G G38U,0.223
4,U6G G39C,0.124
5,U6G G39U,0.105
6,U6G G41C,0.092
7,U6G G42C,0.156
8,U6G G42U,0.0829
9,U6G G43U,0.184
10,U6G G44U,0.242
11,U6G G45C,0.104
12,U6G G45U,0.129
13,U6G G47U,0.151
14,U6G G48A,0.24
15,U6G G48C,0.358
16,U6G U12A,0.769
17,U6G U12C,0.35
18,U6G U12G,0.343
19,U6G U18A,0.0684
20,U6G U18C,0.131
21,U6G U31A,0.169
22,U6G U31C,0.365
23,G7A A10C,0.459
24,G7A A10G,0.982

row,Variant,self-cleavage
1,G7A A10U,0.505
2,G7A A11C,0.0895
3,G7A A22C,0.519
4,G7A A22G,0.0675
5,G7A A22U,0.103
6,G7A A23C,0.0662
7,G7A A23U,0.12
8,G7A A30G,0.405
9,G7A A33C,0.211
10,G7A A33G,0.243
11,G7A A34U,0.154
12,G7A A35G,0.123
13,G7A A35U,0.546
14,G7A A40C,0.132
15,G7A A40U,0.127
16,G7A C9U,0.0809
17,G7A C14G,0.0811
18,G7A C14U,0.43
19,G7A C15G,0.0625
20,G7A C19A,0.0667
21,G7A C20U,0.116
22,G7A C21A,0.059
23,G7A C21U,0.103
24,G7A C25A,0.0809

row,Variant,self-cleavage
1,G7A C25G,0.237
2,G7A C26G,0.0601
3,G7A C26U,0.102
4,G7A C27A,0.112
5,G7A C46A,0.354
6,G7A G17A,0.083
7,G7A G17U,0.103
8,G7A G24U,0.0739
9,G7A G28U,0.28
10,G7A G29C,0.12
11,G7A G29U,0.339
12,G7A G36A,0.109
13,G7A G38A,0.0994
14,G7A G38C,0.348
15,G7A G39A,0.171
16,G7A G39C,0.141
17,G7A G39U,0.15
18,G7A G41U,0.11
19,G7A G42U,0.136
20,G7A G43A,0.176
21,G7A G43C,0.123
22,G7A G44A,0.619
23,G7A G44C,0.322
24,G7A G44U,0.422

row,Variant,self-cleavage
1,G7A G45U,0.177
2,G7A G47C,0.185
3,G7A G47U,0.19
4,G7A U12C,0.455
5,G7A U12G,0.381
6,G7A U31C,0.451
7,G7A U31G,0.647
8,G7A U37A,0.144
9,G7A U37C,0.111
10,G7A U37G,0.162
11,G7C A10C,0.0829
12,G7C A10G,0.0662
13,G7C A10U,0.0545
14,G7C A11C,0.0664
15,G7C A11U,0.0693
16,G7C A22C,0.0571
17,G7C A23U,0.0664
18,G7C A30C,0.0728
19,G7C A30U,0.0697
20,G7C A32C,0.0784
21,G7C A32G,0.105
22,G7C A34C,0.118
23,G7C A34G,0.061
24,G7C A34U,0.067

row,Variant,self-cleavage
1,G7C A35C,0.064
2,G7C A35U,0.0701
3,G7C A40C,0.0472
4,G7C A40U,0.0764
5,G7C C8G,0.0684
6,G7C C8U,0.0597
7,G7C C9G,0.0747
8,G7C C9U,0.101
9,G7C C14U,0.0373
10,G7C C15A,0.0454
11,G7C C15G,0.0181
12,G7C C19G,0.0745
13,G7C C20G,0.0473
14,G7C C20U,0.122
15,G7C C21G,0.0593
16,G7C C21U,0.0396
17,G7C C25A,0.0795
18,G7C C25G,0.218
19,G7C C26A,0.0601
20,G7C C26G,0.0717
21,G7C C27A,0.0706
22,G7C C27G,0.073
23,G7C C27U,0.0315
24,G7C G13A,0.0687

row,Variant,self-cleavage
1,G7C G13C,0.0439
2,G7C G16C,0.13
3,G7C G17U,0.0545
4,G7C G24A,0.0629
5,G7C G28A,0.0408
6,G7C G28U,0.093
7,G7C G29A,0.0857
8,G7C G29C,0.0533
9,G7C G36C,0.0549
10,G7C G38A,0.0835
11,G7C G38C,0.0787
12,G7C G38U,0.071
13,G7C G39C,0.071
14,G7C G41C,0.0623
15,G7C G41U,0.0511
16,G7C G42A,0.062
17,G7C G42C,0.0454
18,G7C G43C,0.0825
19,G7C G44A,0.0625
20,G7C G44U,0.0818
21,G7C G45U,0.0816
22,G7C G47C,0.122
23,G7C G48C,0.0656
24,G7C U12C,0.0838

row,Variant,self-cleavage
1,G7C U18A,0.0787
2,G7C U37C,0.0652
3,G7U A10C,0.117
4,G7U A11C,0.0886
5,G7U A11U,0.0842
6,G7U A22C,0.11
7,G7U A22G,0.0616
8,G7U A22U,0.0446
9,G7U A23U,0.0674
10,G7U A30C,0.0485
11,G7U A30U,0.0836
12,G7U A32G,0.0756
13,G7U A32U,0.101
14,G7U A33U,0.109
15,G7U A34C,0.0467
16,G7U A34G,0.0851
17,G7U A35C,0.0996
18,G7U A35G,0.0839
19,G7U A35U,0.109
20,G7U C8G,0.114
21,G7U C9U,0.0542
22,G7U C14U,0.0997
23,G7U C15A,0.0847
